Reference: the Human Domainome abundance scans (Beltran et al. 2025)
± gives the uncertainty stated by the source.

B1: 1-phosphatidylinositol 4,5-bisphosphate phosphodiesterase gamma-2, residues 772 to 827; numbered along this chain, P16885 (parent)
chain: RTVKALYDYKAKRSDELSFCRGALIHNVSKEPGGWWKGDYGTRIQQYFPSNYVEDI

Variants of: B1
Test: abundance fitness (aPCA) (normalised: wild type 0, dead -1); higher = more abundant; growth selection in yeast, the domain comes from the species named
Details: Homo sapiens

Abundance fitness, by site and new letter:
K30: G -0.576 ± 0.23; E -0.042 ± 0.072; M -0.092 ± 0.082; R -0.05 ± 0.093; I 0.245 ± 0.089; A -0.195 ± 0.057; Q -0.208 ± 0.081; F -0.21 ± 0.062; L -0.169 ± 0.057; T -0.245 ± 0.11; D -0.214 ± 0.11; N -0.167 ± 0.1; H -0.054 ± 0.086; Y 0.039 ± 0.086; P 0.246 ± 0.094; C -0.077 ± 0.18; W -0.293 ± 0.17; V -0.047 ± 0.059
W35: A -0.383 ± 0.062; G -0.625 ± 0.072; E -0.217 ± 0.062; F 0.044 ± 0.19; S -0.273 ± 0.14; P -0.616 ± 0.12; K -0.58 ± 0.17; T -0.281 ± 0.31; L -0.058 ± 0.072; V -0.29 ± 0.057; D -0.381 ± 0.36; I -0.611 ± 0.32; M -0.225 ± 0.11; R 0.089 ± 0.074
P32: R -0.166 ± 0.085; Q 0.022 ± 0.11; L -0.014 ± 0.078; N 0.256 ± 0.3; E 0.126 ± 0.082; M 0.093 ± 0.099; C -0.275 ± 0.24; F -0.247 ± 0.26; V -0.315 ± 0.084; Y -0.278 ± 0.31; G -0.115 ± 0.044; W -0.406 ± 0.058; A 0.056 ± 0.073; K -0.229 ± 0.15; S -0.011 ± 0.08; D -0.087 ± 0.14
S18: A -0.862 ± 0.22; D -0.201 ± 0.21; V -0.914 ± 0.24; P -0.907 ± 0.16; G -0.679 ± 0.15; L -0.987 ± 0.32; R -0.936 ± 0.12; C -0.512 ± 0.5; F -0.927 ± 0.094; T -0.187 ± 0.25; N -0.619 ± 0.15; E 0.018 ± 0.11
G34: D -0.085 ± 0.09; Y -0.164 ± 0.15; Q -0.094 ± 0.064; M -0.11 ± 0.094; V -0.032 ± 0.059; S -0.129 ± 0.051; K 0.024 ± 0.12; C -0.284 ± 0.14; R -0.06 ± 0.069; N 0.138 ± 0.092; T 0.014 ± 0.088; A -0.074 ± 0.06; H -0.101 ± 0.06; L -0.083 ± 0.067; I -0.143 ± 0.15; P 0.01 ± 0.071; W -0.445 ± 0.12; E -0.06 ± 0.096
R21: L -0.79 ± 0.19; S -0.285 ± 0.14; V -0.122 ± 0.088; N -0.086 ± 0.36; K -0.247 ± 0.28; F -0.235 ± 0.19
E31: H -0.265 ± 0.14; T 0.141 ± 0.088; Q -0.071 ± 0.13; M -0.009 ± 0.1; F 0.016 ± 0.083; Y -0.05 ± 0.069; V -0.099 ± 0.073; A -0.1 ± 0.065; P -0.291 ± 0.12; W 0.036 ± 0.15; N -0.169 ± 0.2; S 0.002 ± 0.073; C -0.069 ± 0.1; I -0.174 ± 0.12; D -0.22 ± 0.086; G 0.065 ± 0.07; K -0.135 ± 0.11; L -0.015 ± 0.072
S14: T -0.291 ± 0.13; G -0.007 ± 0.068; V -0.16 ± 0.064; N -0.316 ± 0.21; R 0.026 ± 0.056; D -0.053 ± 0.11; Q 0.037 ± 0.075; P -0.439 ± 0.21; Y -0.304 ± 0.19; A 0.038 ± 0.078; C -0.124 ± 0.14; F 0.024 ± 0.16; L -0.167 ± 0.072; K -0.172 ± 0.17; E -0.206 ± 0.095; M 0.024 ± 0.06; I 0.031 ± 0.14; H -0.107 ± 0.18; W -0.334 ± 0.09
G22: N -0.364 ± 0.26; D -0.236 ± 0.086; T -0.872 ± 0.095; H -0.704 ± 0.34; M -0.52 ± 0.23; W -0.811 ± 0.092; P -0.688 ± 0.28; S -0.681 ± 0.14; F -0.802 ± 0.21; R -0.775 ± 0.083; V -0.911 ± 0.24; K -0.203 ± 0.34; L -1.14 ± 0.32; E -0.418 ± 0.19; Y -0.856 ± 0.46; C -0.86 ± 0.36
K12: P -0.93 ± 0.18; T -0.097 ± 0.052; S -0.263 ± 0.068; W -0.369 ± 0.24; Q -0.077 ± 0.052; V -0.217 ± 0.086; R -0.092 ± 0.068; Y -0.48 ± 0.12; N -0.181 ± 0.1
L24: M -0.207 ± 0.1; A -0.659 ± 0.12; P -0.818 ± 0.072; D -0.781 ± 0.47; K -0.215 ± 0.058; V -0.046 ± 0.075; Y 0.041 ± 0.13; H -0.335 ± 0.22; G -0.837 ± 0.16; W -0.359 ± 0.12; T -0.222 ± 0.11; E -0.083 ± 0.063; C -0.044 ± 0.099; Q -0.267 ± 0.076; N -0.212 ± 0.14; R -0.299 ± 0.075
H26: I -0.084 ± 0.13; C -0.087 ± 0.12; V -0.035 ± 0.07; E -0.002 ± 0.087; F 0.012 ± 0.14; N -0.198 ± 0.094; L -0.081 ± 0.082; Q -0.005 ± 0.086; G -0.43 ± 0.093; P -1.1 ± 0.24; Y -0.121 ± 0.12; M -0.069 ± 0.096; K -0.221 ± 0.14; A -0.113 ± 0.044; D -0.173 ± 0.12; W -0.072 ± 0.08; T 0.034 ± 0.11; S 0.01 ± 0.073
C20: G -0.059 ± 0.057; S 0.008 ± 0.075; R 0.11 ± 0.055; W -0.446 ± 0.1; I -0.216 ± 0.15; T -0.012 ± 0.083; F -0.17 ± 0.11; L -0.116 ± 0.081; H 0.151 ± 0.14; V 0.017 ± 0.051; A 0.004 ± 0.06; K 0.002 ± 0.11; D -0.095 ± 0.1; N -0.037 ± 0.15; M -0.063 ± 0.073; P 0.209 ± 0.085; Q -0.143 ± 0.1
L17: A -0.922 ± 0.28; F -0.492 ± 0.25; V -0.41 ± 0.14; W -0.884 ± 0.36; G -1 ± 0.44; R -0.945 ± 0.28; M 0.012 ± 0.093; Q -0.903 ± 0.11; I -0.154 ± 0.35; T -0.788 ± 0.43; E -0.81 ± 0.42
S29: F 0.151 ± 0.28
V28: D -0.821 ± 0.47; N -0.671 ± 0.49; T -0.486 ± 0.23; K -0.623 ± 0.35; W -0.793 ± 0.17; R -0.788 ± 0.085; M -1.08 ± 0.15; S -0.836 ± 0.25; C -0.568 ± 0.19; Q -0.762 ± 0.3; A -0.873 ± 0.36
D15: H -0.362 ± 0.33; G -0.047 ± 0.078; S 0.006 ± 0.058; T 0.178 ± 0.1; P -0.879 ± 0.15; C -0.165 ± 0.16; R -0.427 ± 0.1; V -0.041 ± 0.042; L -0.37 ± 0.069; N -0.048 ± 0.087; E 0.018 ± 0.067; F -0.124 ± 0.14; A -0.182 ± 0.076; Q -0.214 ± 0.18; Y -0.254 ± 0.15; I -0.027 ± 0.19; M 0.185 ± 0.11; K -0.503 ± 0.14
R13: T -0.368 ± 0.27; E -0.306 ± 0.23; Q -0.301 ± 0.18; W -0.846 ± 0.36; Y -0.1 ± 0.11; D -0.281 ± 0.14; S -0.056 ± 0.057; K -0.267 ± 0.21; F -0.007 ± 0.12; L -0.645 ± 0.12; M -0.021 ± 0.081; H -0.26 ± 0.16; G -0.316 ± 0.083; V -0.47 ± 0.13; C -0.212 ± 0.13
G33: E -0.274 ± 0.21; D -0.168 ± 0.055; W -0.258 ± 0.092; S -0.114 ± 0.049; N -0.102 ± 0.067; R -0.434 ± 0.061; Q -0.556 ± 0.34; L -0.408 ± 0.07; H -0.277 ± 0.15; P -0.699 ± 0.12; F -0.203 ± 0.17; V -0.82 ± 0.2; A -0.547 ± 0.18; T -0.421 ± 0.15; K -0.781 ± 0.47; Y -0.293 ± 0.064; C -0.108 ± 0.087
I25: F -0.598 ± 0.3; A -0.741 ± 0.16; R -0.976 ± 0.47; Q -0.921 ± 0.32; S -1 ± 0.34; L -0.386 ± 0.11; W -0.723 ± 0.31; V -0.481 ± 0.078
N27: Q -0.13 ± 0.17; S -0.473 ± 0.12; W -0.956 ± 0.32; M -0.695 ± 0.28; C -0.722 ± 0.14; E -0.164 ± 0.15; H -0.486 ± 0.35; G -0.654 ± 0.067; I -0.748 ± 0.4; A -0.56 ± 0.12; F -1.05 ± 0.47; V -0.958 ± 0.28; L -0.974 ± 0.24; K -0.625 ± 0.06; R -0.549 ± 0.062
A23: C -0.092 ± 0.16; H -0.471 ± 0.27; Y -0.059 ± 0.15; N -0.131 ± 0.08; V -0.296 ± 0.083; F -0.314 ± 0.23; S -0.154 ± 0.093; Q -0.595 ± 0.19; D 0.096 ± 0.09; I -0.613 ± 0.23; W -0.858 ± 0.32; E -0.052 ± 0.088; T -0.065 ± 0.09; R -0.698 ± 0.086; K -0.745 ± 0.38
F19: C -0.64 ± 0.34; G -0.604 ± 0.23; P -0.536 ± 0.21; K -0.558 ± 0.42; Q -0.721 ± 0.34; L -0.779 ± 0.2; D -0.685 ± 0.13; V -0.886 ± 0.1; A -0.758 ± 0.14; R -0.966 ± 0.17; E -0.711 ± 0.47
W36: C -0.108 ± 0.045; A -0.214 ± 0.085; D -0.576 ± 0.28
E16: H -0.201 ± 0.38; M -0.633 ± 0.096; T -0.442 ± 0.2; A -0.456 ± 0.092; W -1.02 ± 0.47; S -0.618 ± 0.21; Q -0.168 ± 0.13; R -0.528 ± 0.097; K -0.822 ± 0.13; V -0.612 ± 0.074; G -0.354 ± 0.069; L -0.486 ± 0.14
